Patent US10907134B2, “Mutated genes for the catalytic protein of oplophorus luciferase and use thereof” (JNC CORPORATION, priority 2013, dated 2021)

What was measured:
[1] = Luminescence activity of KAZ mutants (pCold II, E. coli) in supernatant and precipitate of crude enzyme solution; assay type: biochemical; details: for Relative Luminescence Activity (Imax) Precipitate / Relative Luminescence Activity (Imax) Supernatant / Luminescence activity in the supernatants, fold higher as compared to the wild KAZ: pCold II; for Relative Luminescence Activity (Imax) Precipitate / Relative Luminescence Activity (Imax) Supernatant: E. coli BL21, 60 seconds; for Relative Luminescence Activity (Imax) Precipitate: 5 μL precipitate; for Relative Luminescence Activity (Imax) Supernatant: 5 μL supernatant; for Luminescence activity in the supernatants, fold higher as compared to the wild KAZ: supernatant, coelenterazine (Table 8)
Protocol: In order to express the KAZ mutants in E. coli, the recombinant plasmid prepared in EXAMPLE 3 was used. The E. coli BL21 strain (Novagen, Madison, Wis.) was used as a host cell. The BL21 strain carrying the recombinant plasmid was incubated in 5 mL of Luria-Bertani medium (hereinafter designated as LB medium) containing ampicillin (50 μg/mL) at 37° C. for 18 hours. This seed culture, 0.1 mL, was inoculated to 10 mL of LB medium and incubated for 3 hours, followed by cooling in an ice-water bath for 1 hour. IPTG was added to the culture medium at a final concentration of 1 mM, followed by incubation at 15° C. for further 20 hours. After completion of the incubation, 1 mL of the cultured medium was harvested by centrifugation at 10,000 rpm for 2 minutes. The thus collected E. coli cells were suspended in 0.5 mL of 30 mM Tris-HCl (pH 7.6)-10 mM EDTA (manufactured by Wako Pure Chemical Industries, Ltd.) (hereinafter designated as TE). The E. coli cells were disrupted by sonication for 3 seconds using a Branson Model 250 Sonifier (Danbury, Conn.) to give a crude enzyme solution. After 0.5 mL of the crude enzyme solution was further centrifuged at 10,000 rpm for 2 minutes to separate the supernatant from the precipitate, the precipitate was suspended in 0.5 mL of TE. Then 20 μL each of the supernatant and precipitate were analyzed by SDS-PAGE to confirm the presence or absence of soluble and insoluble proteins. The results are shown in FIG. 1, wherein M and 1 to 17 denote: M: molecular weight size markers; 1: KAZ; 2 KAZ-A4E; 3: KAZ-Q11R; 4: KAZ-Q18L; 5: KAZ-L27V; 6: KAZ-A33N; 7: KAZ-K43R; 8: KAZ-V44I; 9: KAZ-A54I; 10: KAZ-F68D; 11: KAZ-L72Q; 12: KAZ-M75K; 13: KAZ-I90V; 14: KAZ-P115E; 15: KAZ-Q124K; 16: KAZ-Y138I; 17: KAZ-N166R and 18: dnKAZ.
A luminescence reaction was started by the addition of 5 μL each of the supernatant and precipitate obtained in EXAMPLE 4 to 100 μL of TE containing 0.5 μg of coelenterazine (manufactured by JNC Corp.). The luminescence activity was measured for 60 seconds using a luminometer (manufactured by Atto Corp.: AB2200) and expressed in terms of relative luminescence activity (Imax).
To express the KAZ mutants with two amino acid substitutions and three amino acid substitutions in E. coli using a pCold II vector, the recombinant plasmid constructed in EXAMPLE 13 and pCold-V44I-KAZ, pCold-A54I-KAZ, pCold-Y138I-KAZ prepared in EXAMPLE 3 were used. The supernatant and precipitate of each crude enzyme solution were prepared in the same manner as EXAMPLE 4, using the E. coli BL21 starin (Novagen, Madison, Wis.) as a host cell. The supernatant and precipitate, 20 μL each, were subjected to SDS-PAGE analysis to confirm the presence or absence of soluble proteins and insoluble proteins. In FIG. 3, M and 1 to 9 are as follows. M: molecular weight markers; 1: dnKAZ; 2: KAZ; 3: KAZ-V44I-A54I; 4: KAZ-V44I-Y138I; 5: KAZ-A54I-Y138I; 6: KAZ-V44I-A54I-Y138I; 7: KAZ-V44I; 8: KAZ-A54I; and 9: KAZ-Y138I.
The luminescence activities of 5 μL each of the supernatant and precipitate obtained in EXAMPLE 14 were determined in the same manner as EXAMPLE 5. The luminescence activity was assayed with a luminometer (manufactured by Atto Inc.: AB2200) for 60 seconds, and the maximum intensity of luminescence (Imax) was shown as relative luminescence activity.

[2] = Luminescence activity of ZZ-fused KAZ mutants in crude enzyme solutions; assay type: biochemical; details: for Relative Luminescence Activity (Imax): ZZ-fused (pCold-ZZ-P-), 1 mM DTT; for Luminescence activity, times higher than that of wild KAZ: coelenterazine (Table 4); for Luminescence activity, fold higher than dnKAZ / Luminescence activity, fold higher than wild KAZ: coelenterazine (Table 9)
Protocol: To express the ZZ-fused KAZ mutants in E. coli, the recombinant plasmid prepared in EXAMPLE 6 was used. Crude enzyme solutions were prepared in the same manner as EXAMPLE 4 using the E. coli BL21 strain (Novagen, Madison, Wis.) as a host cell. The resultant crude enzyme solution, 5 μL, was subjected to SDS-PAGE analysis to confirm expression of the proteins (FIG. 2). In FIG. 2, M and 1 to 18 are the same as described in FIG. 1.
DTT was added to the crude enzyme solution obtained in EXAMPLE 7 at a final concentration of 1 mM and the mixture was allowed to stand in an ice water for more than 5 hours. A luminescence reaction was started by adding 1 μL of the crude enzyme solution to 100 μL of TE containing 1 μg of coelenterazine (manufactured by JNC Corp.). The luminescence activity was determined using a luminometer (manufactured by Atto Inc.: AB2200) for 60 seconds, and the maximum intensity of luminescence (Imax) was shown as relative luminescence activity.
To express the ZZ-fused KAZ mutants in E. coli, the recombinant plasmid constructed in EXAMPLE 16 and pCold-ZZ-P-V44I-KAZ, pCold-ZZ-P-A54I-KAZ, pCold-ZZ-P-Y138I-KAZ prepared in EXAMPLE 6 were used. Crude enzyme solutions were prepared in the same manner as EXAMPLE 7, using the E. coli BL21 strain (Novagen, Madison, Wis.) as a host cell. DTT was added to the crude enzyme solutions at a final concentration of 1 mM. The mixtures were allowed to stand over 5 hours on ice, and luminescence activities were then assayed. The luminescence activities were determined by the method described in EXAMPLE 8. Also, 5 μL of the resultant crude enzyme solutions were subjected to SDS-PAGE analysis to confirm protein expression (FIG. 4). In FIG. 4, M and 1 to 9 are as follows. M: molecular weight size markers; 1: ZZ-P-KAZ; 2: ZZ-P-KAZ-V44I; 3: ZZ-P-KAZ-A54I; 4: ZZ-P-KAZ-Y138I; 5: ZZ-P-KAZ-V44I-A54I; 6: ZZ-P-KAZ-V44I-Y138I; 7: ZZ-P-KAZ-A54I-Y138I; 8: ZZ-P-KAZ-V44I-A54I-Y138I; and 9: ZZ-P-dnKAZ.

[3] = Table 4, 1 μL crude enzyme solution, 1 μg coelenterazine
[4] = Table 9, crude enzyme solution, coelenterazine
[5] = ZZ-fused, crude enzyme solution

Molecule	Relative Luminescence Activity (Imax) Precipitate ([1]; Table 3, 0.5 μg coelenterazine)	Relative Luminescence Activity (Imax) Supernatant ([1]; Table 3, 0.5 μg coelenterazine)	Relative Luminescence Activity (Imax) Precipitate ([1]; Table 8, coelenterazine)	Relative Luminescence Activity (Imax) Supernatant ([1]; Table 8, coelenterazine)	Luminescence activity relative to that of dnKAZ ([1]; pCold II crude enzyme solution, coelenterazine)	Relative Luminescence Activity (Imax) [2, 3]	Relative Luminescence Activity (Imax) [2, 4]	Luminescence activity compared with dnKAZ ([2]; ZZ-fused, crude enzyme solution, coelenterazine)	Luminescence activity, times higher than that of wild KAZ [2, 5] [times]	Luminescence activity in the supernatants, fold higher as compared to the wild KAZ [1] [fold]	Luminescence activity, fold higher than dnKAZ [2, 5] [fold]	Luminescence activity, fold higher than wild KAZ [2, 5] [fold]
KAZ-A54I: KAZ with single amino acid substitution A54I, SEQ ID NO: 6 (protein) FTLADFVGDWQQTAGYNQDQVLEQGGLSSLFQALGVSVTPIQKVVLSGENGLKIDIHVIIPYEGLSGFQMGLIEMIFKVVYPVDDHHFKIILHYGTLVIDGVTPNMIDYFGRPYPGIAVFDGKQITVTGTLWNGNKIYDERLINPDGSLLFRVTINGVTGWRLCENILA	13	150	13	151	approximately 1/12	8.9	8.4	comparable to dnKAZ	8.9	–	–	–
KAZ-A54I-Y138I: KAZ mutant with two amino acid substitutions A54I and Y138I, SEQ ID NO: 14 (protein) FTLADFVGDWQQTAGYNQDQVLEQGGLSSLFQALGVSVTPIQKVVLSGENGLKIDIHVIIPYEGLSGFQMGLIEMIFKVVYPVDDHHFKIILHYGTLVIDGVTPNMIDYFGRPYPGIAVFDGKQITVTGTLWNGNKIIDERLINPDGSLLFRVTINGVTGWRLCENILA	–	–	21	982	–	–	23.1	–	–	982	2.5	23
KAZ-Y138I: KAZ with single amino acid substitution Y138I, SEQ ID NO: 8 (protein) FTLADFVGDWQQTAGYNQDQVLEQGGLSSLFQALGVSVTPIQKVVLSGENGLKADIHVIIPYEGLSGFQMGLIEMIFKVVYPVDDHHFKIILHYGTLVIDGVTPNMIDYFGRPYPGIAVFDGKQITVTGTLWNGNKIIDERLINPDGSLLFRVTINGVTGWRLCENILA	1.4	32	1.4	32	–	5.9	7.5	–	5.9	–	–	–
KAZ-V44I: KAZ with single amino acid substitution V44I, SEQ ID NO: 4 (protein) FTLADFVGDWQQTAGYNQDQVLEQGGLSSLFQALGVSVTPIQKIVLSGENGLKADIHVIIPYEGLSGFQMGLIEMIFKVVYPVDDHHFKIILHYGTLVIDGVTPNMIDYFGRPYPGIAVFDGKQITVTGTLWNGNKIYDERLINPDGSLLFRVTINGVTGWRLCENILA	0.6	6.5	0.6	6.5	–	6.6	7.2	–	6.6	–	–	–
KAZ-V44I-A54I: KAZ mutant with two amino acid substitutions V44I and A54I, SEQ ID NO: 10 (protein) FTLADFVGDWQQTAGYNQDQVLEQGGLSSLFQALGVSVTPIQKIVLSGENGLKIDIHVIIPYEGLSGFQMGLIEMIFKVVYPVDDHHFKIILHYGTLVIDGVTPNMIDYFGRPYPGIAVFDGKQITVTGTLWNGNKIYDERLINPDGSLLFRVTINGVTGWRLCENILA	–	–	5.8	295	–	–	15.3	–	–	295	1.6	15
KAZ-V44I-Y138I: KAZ mutant with two amino acid substitutions V44I and Y138I, SEQ ID NO: 12 (protein) FTLADFVGDWQQTAGYNQDQVLEQGGLSSLFQALGVSVTPIQKIVLSGENGLKADIHVIIPYEGLSGFQMGLIEMIFKVVYPVDDHHFKIILHYGTLVIDGVTPNMIDYFGRPYPGIAVFDGKQITVTGTLWNGNKIIDERLINPDGSLLFRVTINGVTGWRLCENILA	–	–	5.0	71	–	–	17.1	–	–	71	1.8	17
KAZ-V44I-A54I-Y138I: KAZ mutant with three amino acid substitutions V44I, A54I and Y138I, SEQ ID NO: 16 (protein) FTLADFVGDWQQTAGYNQDQVLEQGGLSSLFQALGVSVTPIQKIVLSGENGLKIDIHVIIPYEGLSGFQMGLIEMIFKVVYPVDDHHFKIILHYGTLVIDGVTPNMIDYFGRPYPGIAVFDGKQITVTGTLWNGNKIIDERLINPDGSLLFRVTINGVTGWRLCENILA	–	–	40	1,730	–	–	66.7	–	–	–	7.1	67
